Tests used:
[1] = target: CD16 on CD16-transfected NFAT-bla Jurkat cells (UniProt P08637); test: competition flow cytometry; displacement of AF488-labelled human IgG1 (25 nM) from CD16-transfected NFAT-bla Jurkat cells
[2] = target: human FcRn on FcRn-transfected 293FS cells (293FS+FcRn+β2m (clone #2)) (human) (UniProt P55899); test: competition flow cytometry; displacement of AF488-labelled IgG1 (3.33 nM) from human FcRn-transfected 293FS cells, pH 5.5

Sequence of UniProt P08637 (P08637 17-254 limits assumed): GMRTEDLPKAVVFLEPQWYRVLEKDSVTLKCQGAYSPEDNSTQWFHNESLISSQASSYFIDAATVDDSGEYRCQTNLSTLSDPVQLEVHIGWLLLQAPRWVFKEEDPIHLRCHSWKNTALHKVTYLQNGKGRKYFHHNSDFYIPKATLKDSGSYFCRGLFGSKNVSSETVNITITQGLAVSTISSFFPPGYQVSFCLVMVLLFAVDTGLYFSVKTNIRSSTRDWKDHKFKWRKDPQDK

Ki [1]: 225 nM | Ki [2]: 200 nM
Substance: human IgG1 (antibody)
